In patent US20190040131A1 (published 2019):

Legend:
human CD33 [1] = molecular target: T1, human CD33 (human, UniProt P20138 18-259, limits assumed); experiment: BLI (ForteBio), CD33 on tip, Fab 100 nM
T1 construct: Human CD33 immobilized on the BLI sensor tip or the BIAcore C1 chip; also called Siglec-3
Procedure: (§1) The affinities (KD) of the humanized antibodies for human CD33 were measured for each antibody by BioLayer Interferometry in a ForteBio assay according to standard techniques (Estep et al. (2013) MAbs 5(2): 270-8). […] The assay was carried out at room temperature.
(§2) The affinities of AB-H14 and its affinity-matured variants (Table 15) and AB-H63 and its affinity-matured variants (Table 16), for human CD33 were measured by Fortebio assay according to the method described in Example 1 above.

human CD33 [2] = molecular target: T1, human CD33; experiment: BLI (ForteBio), Fab; column looks row-shifted against KD
Procedure: as §1, §2

T1 sequence (P20138 18-259 limits assumed): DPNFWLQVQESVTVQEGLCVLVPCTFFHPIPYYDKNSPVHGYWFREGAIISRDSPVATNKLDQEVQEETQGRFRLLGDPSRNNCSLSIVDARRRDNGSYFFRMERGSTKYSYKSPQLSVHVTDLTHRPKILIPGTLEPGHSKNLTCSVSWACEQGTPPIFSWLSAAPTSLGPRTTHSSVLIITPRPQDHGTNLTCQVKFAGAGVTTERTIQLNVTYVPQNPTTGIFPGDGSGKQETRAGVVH

Kd (human CD33 [1]) [nM]	koff (human CD33 [1]) [s⁻¹]	koff (human CD33 [2]) [s⁻¹]	kon (human CD33 [2]) [M⁻¹ s⁻¹]	Binder
0.299	0.0002			AB-14.1 (antibody, V domains shown) VH: QVQLVQSGAEVKKPGASVKVSCKASGATFTDYNFHWVRQAPGQGLEWIGFIYPSNGITGYAQDFQGRVTMTVDTSTSTVYMELSSLRSEDTAVYYCARSDVDYFDYWGQGTLVTVSS VL: DIQMTQSPSSLSASVGDRVTITCRASQSVSTSTYSYMHWYQQKPGKAPKLLIKYASNLESGVPSRFSGSGSGTDFTLTISSLQPEDFATYYCQHSWEIPLTFGQGTKLEIK
		0.0002	723000	AB-63.15 (antibody, V domains shown) VH: QVQLVQSGAEVKKPGASVKVSCKASGYTFTDYNYHWVRQAPGQGLEWIGFIYPSNGITGYAQKFQGRVTMTVDTSTSTVYMELSSLRSEDTAVYYCARSDVDYFDLWGQGTLVTVSS VL: DIVLTQSPDSLAVSLGERATINCRASQDVSTSTYSYMHWYQQKPGQPPKLLIKYASNVESGVPDRFSGSGSGTDFTLTISSLQAEDVAVYYCQHSWEIPLTFGQGTKLEIE
			658000	AB-63.9 (antibody, V domains shown) VH: QVQLVQSGAEVKKPGASVKVSCKASGYAFTDYNLHWVRQAPGQGLEWIGFIYPSNGITGYAQKFQGRVTMTVDTSTSTVYMELSSLRSEDTAVYYCARSDVDYFDYWGQGTLVTVSS VL: DIVLTQSPDSLAVSLGERATINCRASQDVSTSTYSYMHWYQQKPGQPPKLLIKYASYLESGVPDRFSGSGSGTDFTLTISSLQAEDVAVYYCEHSWEIPLTFGQGTKLEIK
		0.000581	809000	AB-63.7 (antibody, V domains shown) VH: QVQLVQSGAEVKKPGASVKVSCKASGYTFTDYNLHWVRQAPGQGLEWIGFIYPSNGITGYAQKFQGRVTMTVDTSTSTVYMELSSLRSEDTAVYYCARSTVDYFDYWGQGTLVTVSS VL: DIVLTQSPDSLAVSLGERATINCRASQDVSTSTYSYMHWYQQKPGQPPKLLIKYAFNLESGVPDRFSGSGSGTDFTLTISSLQAEDVAVYYCQHSWEIPLEFGQGTKLEIK
			738000	AB-63.12 (antibody, V domains shown) VH: QVQLVQSGAEVKKPGASVKVSCKASGYTFTDYNFHWVRQAPGQGLEWIGFIYPSNGITGYAQKFTGRVTMTVDTSTSTVYMELSSLRSEDTAVYYCARSTVDYFDDWGQGTLVTVSS VL: DIVLTQSPDSLAVSLGERATINCRASQDVSTSTYSYMHWYQQKPGQPPKLLIKYASNVESGVPDRFSGSGSGTDFTLTISSLQAEDVAVYYCQHSWAIPLTFGQGTKLEIK
		0.00112	602000	AB-63.4 (antibody, V domains shown) VH: QVQLVQSGAEVKKPGASVKVSCKASGYTFTDYNYHWVRQAPGQGLEWIGFIYPSNGITGYAQKFQGRVTMTVDTSTSTVYMELSSLRSEDTAVYYCARSTVDYFDYWGQGTLVTVSS VL: DIVLTQSPDSLAVSLGERATINCRASQSVSTSTYSYMHWYQQKPGQPPKLLIKYASNLESGVPDRFSGSGSGTDFTLTISSLQAEDVAVYYCQHSWEIPLTFGQGTKLEIK
		0.000546	596000	AB-63.10 (antibody, V domains shown) VH: QVQLVQSGAEVKKPGASVKVSCKASGYTETDYNLHWVRQAPGQGLEWIGFIYPSNGITGYAQKFQGRVTMTVDTSTSTVYMELSSLRSEDTAVYYCARSDVDYFDYWGQGTLVTVSS VL: DIVLTQSPDSLAVSLGERATINCRASQDVSTSTYSYMHWYQQKPGQPPKLLIKYASNLESGVPDRFSGSGSGTDFTLTISSLQAEDVAVYYCQHSWELPLTFGQGTKLEIK
		0.000336	721000	AB-63.13 (antibody, V domains shown) VH: QVQLVQSGAEVKKPGASVKVSCKASGYTFTDYNLHWVRQAPGQGLEWIGFIYPSNGIRGYAQKFQGRVTMTVDTSTSTVYMELSSLRSEDTAVYYCARSDVDYFDYWGQGTLVTVSS VL: DIVLTQSPDSLAVSLGERATINCRASQSVSTSTYSYMHWYQQKPGQPPKLLIKYASNLESGVPDRFSGSGSGTDFTLTISSLQAEDVAVYYCQHSEEIPLTFGQGTKLEIK
		0.000204	903000	AB-63.18 (antibody, V domains shown) VH: QVQLVQSGAEVKKPGSSVKVSCKASGYTHTDYNLHWVRQAPGQGLEWIGFIYPSNGITGYAQKFQGRVTMTVDTSTSTVYMELSSLRSEDTAVYYCARSDVDYFDYWGQGTLVTVSS VL: DIVLTQSPDSLAVSLGERATINCRASQSVSTSTYSYMHWYQQKPGQPPKLLIKYESNLESGVPDRFSGSGSGTDFTLTISSLQAEDVAVYYCQHSWEIPLTFGQGTKLEIK
		0.00176	679000	AB-63.6 (antibody, V domains shown) VH: QVQLVQSGAEVKKPGASVKVSCKASGYTFTDYNLHWVRQAPGQGLEWIGFIYPSNGITGYAQKFQGRVTMTVDTSTSTVYMELSSLRSEDTAVYYCARSTVDYFDYWGQGTLVTVSS VL: DIVLTQSPDSLAVSLGERATINCRASQDVSTSTYSYMHWYQQKPGQPPKLLIKYASNLESGVPDRFSGSGSGTDFTLTISSLQAEDVAVYYCQHSWEIPLTFGQGTKLEIK
		0.0002	913000	AB-63.11 (antibody, V domains shown) VH: QVQLVQSGAEVKKPGASVKVSCKASGYTFTDYNFHWVRQAPGQGLEWIGFIYPANGITGYAQKDQGRVTMTVDTSTSTVYMELSSLRSEDTAVYYCARSDVDYFDYWGQGTLVTVSS VL: DIVLTQSPDSLAVSLGERATINCRASQDVSTSTYSYMHWYQQKPGQPPKLLIKYASNLESGVPDRFSGSGSGTDFTLTISSLQAEDVAVYYCQHSWEIPLTFGQGTKLEIK
		0.00155	776000	AB-63.5 (antibody, V domains shown) VH: QVQLVQSGAEVKKPGASVKVSCKASGYTFTDYNNHWVRQAPGQGLEWIGFIYPSNGITGYAQKFQGRVTMTVDTSTSTVYMELSSLRSEDTAVYYCARSDVDYFDYWGQGTLVTVSS VL: DIVLTQSPDSLAVSLGERATINCRASQSVSTSTYSYMHWYQQKPGQPPKLLIKYASNLESGVPDRFSGSGSGTDFTLTISSLQAEDVAVYYCQHSWEIPLTFGQGTKLEIK
		0.000524	847000	AB-63.8 (antibody, V domains shown) VH: QVQLVQSGAEVKKPGSSVKVSCKASGVTFTDYNYHWVRQAPGQGLEWIGFIYPSNGITGYAQKFQDRVTMTVDTSTSTVYMELSSLRSEDTAVYYCARSTVDYFDYWGQGTLVTVSS VL: DIVLTQSPDSLAVSLGERATINCRASQDVSTSTYSYMHWYQQKPGQPPKLLIKYASNLESGVPDRFSGSGSGTDFTLTISSLQAEDVAVYYCQHSWEIPLTFGQGTKLEIK
		0.000322	839000	AB-63.14 (antibody, V domains shown) VH: QVQLVQSGAEVKKPGSSVKVSCKASGYTFTDYNLHWVRQAPGQGLEWIGFIYPSNGITGYAQKFQGRVTMTVDTSTSTVYMELSSLRSEDTAVYYCARSDVDYFDYWGQGTLVTVSS VL: DIVLTQSPDSLAVSLGERATIDCKASQDVSTSTYSYMHWYQQKPGQPPKLLIKYASNLESGVPDRFSGSGSGTDFTLTISSLQAEDVAVYYCQHSWEIPLTFGQGTKLEIK
